According to PMC11760825, “Prohibitin 1 tethers lipid membranes and regulates OPA1-mediated membrane fusion” (The Journal of Biological Chemistry, 2024):

Molecular target: the molecule itself
Experiment: cell-based or functional assay

B1: recombinant human prohibitin 1 (PHB1), C-terminally histidine-tagged, wild type (natural protein, UniProt P35232 1-272, looked up)
chain: MAAKVFESIGKFGLALAVAGGVVNSALYNVDAGHRAVIFDRFRGVQDIVVGEGTHFLIPWVQKPIIFDCRSRPRNVPVITGSKDLQNVNITLRILFRPVASQLPRIFTSIGEDYDERVLPSITTEILKSVVARFDAGELITQRELVSRQVSDDLTERAATFGLILDDVSLTHLTFGKEFTEAVEAKQVAQQEAERARFVVEKAEQQKKAAIISAEGDSKAAELIANSLATAGDGLIELRKLEAAEDIAYQLSRSRNITYLPAGQSVLLQLPQ
OPA1-mediated liposome fusion (FRET lipid mixing; 0.5 μM L-OPA1 with 2 μM PHB1 against L-OPA1 alone; fusion activity from the first 2 min): ~3 fold
